# doi:10.1101/2023.04.22.537027 (bioRxiv, 2023)
# B1: Cdc10_(Δ1-10) (domain or fragment)
# chain: SYVGFDTITNQIEHRLLKKGFQFNIMVVGQSGLGKSTLINTLFASHLIDSATGDDISALPVTKTTEMKISTHTLVEDRVRLNINVIDTPGFGDFIDNSKAWEPIVKYIKEQHSQYLRKELTAQRERFITDTRVHAILYFLQPNGKELSRLDVEALKRLTEIANVIPVIGKSDTLTLDERTEFRELIQNEFEKYNFKIYPYDSEELTDEELELNRSVRSIIPFAVVGSENEIEINGETFRGRKTRWSAINVEDINQCDFVYLREFLIRTHLQDLIETTSYIHYEGFRARQLIALKENANSRSSAHMSSNAIQR
# Molecular target: the molecule itself
# Assay: crystal structure
protein,measurement,value
B1,binding result,binds
